Results taken from US20090215098A1, “QUANTIFICATION OF ENZYME ACTIVITY BY MASS SPECTROMETRY” (UCL BUSINESS PLC., priority 2006, published 2009).

How the values were obtained:
Akt [1] = assay: MS quantification of Akt activity in B lymphoma cell lysates treated with PI3K inhibitors; format: cell-based, mouse; details: B lymphoma cell line WEHI-231; varying concentrations of inhibitor; FIG. 3A
Method: (§1) The activity of recombinant Akt/PKB was measured using the methods of the invention. Recombinant Akt/PKB was purchased from Upstate (Hampshire, UK). A 5.0 μL aliquot of […] (SEQ ID. NO: 7), 7.5 mM magnesium chloride, 0.15 mM EDTA, 7.5 mM β-glycerol phosphate, 0.1 mM sodium orthovanadate, and 0.1 mM DTT was mixed with 2.5 μL solution of Akt/PKB of various amounts: 0.004, 0.04, 0.2, 0.8, 4, 20, and 80 ng. The incubation time of each reaction was from between 2 minutes to 18 hours. Reactions were stopped with the addition of 7.5 μL of a 1% trifluoroacetic acid solution containing 1 pmol/μL internal standard (mass labeled SEQ ID NO: 39). Aliquots (0.5 μL out of a total of […]) from each reaction were analyzed by either MALDI-TOF MS (Ultraflex, Bruker) or LC-MS/MS (Ultimate HPLC, Dionex, connected to a Micromass/Waters Q-TOF instrument) using a nanoESI interface. Reaction products were analyzed by LC-MS/MS without further treatment. […]
(§2) Mouse WEHI-231 B lymphoma cell line was cultured as described in Cutillas et al., Mol Cell Proteomics 4:1038-51 (2005), incorporated herein in its entirety by reference. […] After centrifugation at 20,000×g, cell lysates were ready to use as enzyme sources. The enzyme activity of Akt in varying amounts of cell lysate (0.033, 0.067, 0.33, and 0.67 μg) was measured in the protocol outlined in example 2. […]

Akt [2] = assay: Akt activity in B cell lysates in the presence of PI3K activators with or without inhibitor; format: cell-based, mouse; details: PI3K activators (sodium pervanadate and anti-IgM) present; with vs without inhibitor; FIG. 3C
Method: as §1, §2

Akt [3] = assay: MS quantification of activity of Akt immunoprecipitates from B lymphoma cells; format: cell-based, mouse; details: addition of PI3K inhibitor, FIG. 3B
Method: as §1, §2

[4] = system: T1, Akt peptide substrate (SEQ ID NO: 7)
T1 sequence: RPRAATF

[5] = system: T2, MAP Kinase peptide substrate (SEQ ID NO: 10)
T2 sequence: APRTPGGRR

[6] = system: T3, PKC peptide substrate (SEQ ID NO: 12)
T3 sequence: QKRPSQRSKYL

[7] = system: Protein Kinase C peptide substrate (SEQ ID NO: 23)
[8] = system: T4, S6 Kinase/Rsk peptide substrate (SEQ ID NO: 5)
T4 sequence: RRRLSSLRA

Cc1ccccc1-n1c(Cn2cnc3c(N)ncnc32)nc2cccc(C)c2c1=O [IC87114]
Activity of the Akt enzyme in cell lysates (Akt [1]): decreased enzyme activity

COC[C@H]1OC(=O)c2coc3c2[C@@]1(C)C1=C(C3=O)[C@@H]2CCC(=O)[C@@]2(C)C[C@H]1OC(C)=O [WM]
Activity of Akt in B cell lysates (Akt [2]): sensitive to the presence or absence of the inhibitor | Activity of the Akt enzyme in cell lysates (Akt [1]): decreased enzyme activity | Activity of Akt immunoprecipitates (Akt [3]): similarly affected

recombinant Akt/PKB
enzymatic activity (phosphorylated peptide product quantified by MALDI-TOF MS or LC-MS/MS) [4]: capable of detecting enzymatic activity down to the zeptommole range

recombinant Erk
extracted mass chromatogram of enzymatic product (LC-MS), time points 0, 10, 30, 60 min [5]: c) corresponds to phosphorylation of SEQ ID NO: 10 by Erk

recombinant PKC
extracted mass chromatogram of enzymatic product (LC-MS), time points 0, 10, 30, 60 min [6]: a) corresponds to phosphorylation of SEQ ID NO: 12 by PKC | extracted mass chromatogram of enzymatic product (LC-MS), time points 0, 10, 30, 60 min [7]: d) corresponds to phosphorylation of SEQ ID NO: 23 by PKC

recombinant S6 p70 kinase
extracted mass chromatogram of enzymatic product (LC-MS), time points 0, 10, 30, 60 min [8]: b) corresponds to phosphylation of SEQ ID NO: 5 by S6 p70 kinase
